This is an account of results in patent US20120094895A1 (MOSAMEDIX B V, published 2012).

The target in assay [1] is T1, integrin αvβ5 (UniProt P06756 31-1048; P18084 24-799, limits assumed).
T1 construct: whole, on cells; Endogenous on MCF-7 and THP-1 cells (human cell lines); also called integrin-receptor
The experiment in a line: flow cytometry, fluorescein labeled protein on MCF-7 and THP-1 cells. In general terms: Flow cytometry measures light scatter and fluorescence of single cells or particles in a stream.

Assay [2] deals with T2, integrin αvβ3 (UniProt P06756 31-1048; P05106 27-788, limits assumed).
T2 construct: whole, on cells; Endogenous on MCF-7 and THP-1 cells (human cell lines); also called integrin-receptor
The assay is described as above.

T1 sequence (P06756 31-1048 limits assumed, chain 1 of 2): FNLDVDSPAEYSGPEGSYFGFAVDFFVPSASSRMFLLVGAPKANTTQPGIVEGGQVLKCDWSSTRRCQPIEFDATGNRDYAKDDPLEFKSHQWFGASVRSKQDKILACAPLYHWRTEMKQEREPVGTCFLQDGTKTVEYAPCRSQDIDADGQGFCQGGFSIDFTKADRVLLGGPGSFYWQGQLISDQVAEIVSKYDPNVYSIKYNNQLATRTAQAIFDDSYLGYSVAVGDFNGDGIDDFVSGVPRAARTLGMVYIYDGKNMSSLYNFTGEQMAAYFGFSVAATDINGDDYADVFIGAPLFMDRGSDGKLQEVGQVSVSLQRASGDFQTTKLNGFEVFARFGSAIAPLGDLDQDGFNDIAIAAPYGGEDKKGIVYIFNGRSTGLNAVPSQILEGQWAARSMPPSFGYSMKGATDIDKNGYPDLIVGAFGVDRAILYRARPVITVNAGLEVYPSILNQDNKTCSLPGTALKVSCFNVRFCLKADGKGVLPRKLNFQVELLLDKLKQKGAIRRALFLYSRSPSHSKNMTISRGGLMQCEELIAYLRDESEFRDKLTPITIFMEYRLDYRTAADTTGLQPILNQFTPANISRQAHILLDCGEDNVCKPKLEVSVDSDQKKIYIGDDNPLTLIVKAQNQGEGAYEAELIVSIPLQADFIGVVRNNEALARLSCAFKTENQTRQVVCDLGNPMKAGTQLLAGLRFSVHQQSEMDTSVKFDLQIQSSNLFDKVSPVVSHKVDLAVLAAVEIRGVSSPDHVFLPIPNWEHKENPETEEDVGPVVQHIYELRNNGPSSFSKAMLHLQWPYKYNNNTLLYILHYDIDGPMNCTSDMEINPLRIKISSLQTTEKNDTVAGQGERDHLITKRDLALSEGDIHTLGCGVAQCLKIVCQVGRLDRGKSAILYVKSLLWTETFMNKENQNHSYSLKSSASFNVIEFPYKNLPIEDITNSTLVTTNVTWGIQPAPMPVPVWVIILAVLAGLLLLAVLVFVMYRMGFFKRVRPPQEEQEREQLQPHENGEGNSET
T1 sequence (P18084 24-799 limits assumed, chain 2 of 2): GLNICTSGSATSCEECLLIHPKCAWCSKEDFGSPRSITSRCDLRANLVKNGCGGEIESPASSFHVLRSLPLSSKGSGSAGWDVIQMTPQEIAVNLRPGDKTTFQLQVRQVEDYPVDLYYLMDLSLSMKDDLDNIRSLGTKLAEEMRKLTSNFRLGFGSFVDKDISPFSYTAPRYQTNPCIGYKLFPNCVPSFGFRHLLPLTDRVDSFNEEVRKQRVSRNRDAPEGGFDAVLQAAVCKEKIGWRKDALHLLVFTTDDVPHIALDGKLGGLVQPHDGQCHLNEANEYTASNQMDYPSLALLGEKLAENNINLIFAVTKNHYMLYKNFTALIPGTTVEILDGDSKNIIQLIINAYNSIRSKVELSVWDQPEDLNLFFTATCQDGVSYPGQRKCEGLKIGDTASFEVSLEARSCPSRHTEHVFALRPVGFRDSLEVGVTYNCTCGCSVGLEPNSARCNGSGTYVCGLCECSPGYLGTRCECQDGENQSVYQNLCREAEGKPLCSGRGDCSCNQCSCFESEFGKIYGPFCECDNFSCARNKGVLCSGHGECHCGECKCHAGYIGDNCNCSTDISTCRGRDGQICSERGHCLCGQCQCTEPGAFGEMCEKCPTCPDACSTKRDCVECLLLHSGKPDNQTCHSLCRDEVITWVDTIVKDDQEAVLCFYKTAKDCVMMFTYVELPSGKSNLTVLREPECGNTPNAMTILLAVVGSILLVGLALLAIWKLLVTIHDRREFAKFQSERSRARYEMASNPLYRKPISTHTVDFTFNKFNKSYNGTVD
T2 sequence (P06756 31-1048 limits assumed, chain 1 of 2): as the sequence (P06756 31-1048 limits assumed, chain 1 of 2) above
T2 sequence (P05106 27-788 limits assumed, chain 2 of 2): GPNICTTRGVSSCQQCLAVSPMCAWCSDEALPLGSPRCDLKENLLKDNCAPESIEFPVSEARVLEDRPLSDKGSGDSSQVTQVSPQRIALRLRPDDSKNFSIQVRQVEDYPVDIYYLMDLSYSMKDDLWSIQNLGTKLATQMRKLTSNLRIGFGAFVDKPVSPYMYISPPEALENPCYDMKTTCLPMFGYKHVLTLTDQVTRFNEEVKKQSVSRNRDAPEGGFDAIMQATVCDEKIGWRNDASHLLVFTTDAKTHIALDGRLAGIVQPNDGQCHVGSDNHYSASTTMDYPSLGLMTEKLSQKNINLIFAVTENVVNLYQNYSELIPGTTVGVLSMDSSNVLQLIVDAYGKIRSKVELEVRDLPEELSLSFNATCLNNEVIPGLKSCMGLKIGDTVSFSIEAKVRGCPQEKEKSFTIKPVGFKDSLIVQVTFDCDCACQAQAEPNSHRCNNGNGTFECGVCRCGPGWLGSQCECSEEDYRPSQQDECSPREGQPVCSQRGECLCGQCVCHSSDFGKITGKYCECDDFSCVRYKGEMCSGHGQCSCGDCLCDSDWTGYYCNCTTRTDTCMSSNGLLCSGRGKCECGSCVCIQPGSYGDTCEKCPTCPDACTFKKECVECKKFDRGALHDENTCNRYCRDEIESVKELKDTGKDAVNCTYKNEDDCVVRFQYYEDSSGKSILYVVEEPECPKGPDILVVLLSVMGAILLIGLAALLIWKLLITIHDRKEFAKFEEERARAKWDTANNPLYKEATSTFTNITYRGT

B1: annexin A5-T7D variant (other)
chain: AQVLRGDVTDFPGFDERADAETLRKAMKGLGTDEESILTLLTSRSNAQRQEISAAFKTLFGRDLLDDLKSELTGKFEKLIVALMKPSRLYDAYELKHALKGAGTNEKVLTEIIASRTPEELRAIKQVYEEEYGSSLEDDVVGDTSGYYQRMLVVLLQANRDPDAGIDEAQVEQDAQALFQAGELKWGTDEEKFITIFGTRSVSHLRKVFDKYMTISGFQIEETIDRETSGNLEQLLLAVVKSIRSIPAYLAETLYYAMKGAGTDDHTLIRVMVSRSEIDLFNIRKEFRKNFATSLYSMIKGDTSGDYKKALLLLCGEDD
modifications: fluorescein (FITC) label, site not stated
notes: Made in E. coli and purified; also called T7D anxA5; RGD-anxA5
On to B1, for which the binding result in assay [1] and in assay [2] was “binds” each time.
